Assay results as given in PMC6605747.

B1: Flag-tagged mouse CXCR4 C-terminally fused via a TEV protease cleavage site to tTA [mouse] / Myc-tagged COMMD8 C-terminally fused to TEV protease [not stated (mouse cDNA cloned for the MSCV2.2 vectors)] (parent)
chain 1: MEPEEGTPLWRLQKLPPEQGAGLLHKIIDGFCGRAYPAHQDYHSVWNSAEWKHVLEDVTTFFKAVVGKNFSEEETLQQLNQLNSCHQEAVLKCLKSRRNEIKQALLGEIVDISCAQLQDFDWQLKLALSSDKIATLQMPLLNLHLDVKEDDKVKPYTVEMSKEELQSLISSLEAANKVVLQLK
chain 2: MEPISVSIYTSDNYSEEVGSGDYDSNKEPCFRDENVHFNRIFLPTIYFIIFLTGIVGNGLVILVMGYQKKLRSMTDKYRLHLSVADLLFVITLPFWAVDAMADWYFGKFLCKAVHIIYTVNLYSSVLILAFISLDRYLAIVHATNSQRPRKLLAEKAVYVGVWIPALLLTIPDFIFADVSQGDISQGDDRYICDRLYPDSLWMVVFQFQHIMVGLILPGIVILSCYCIIISKLSHSKGHQKRKALKTTVILILAFFACWLPYYVGISIDSFILLGVIKQGCDFESIVHKWISITEALAFFHCCLNPILYAFLGAKFKSSAQHALNSMSRGSSLKILSKGKRGGHSSVSTESESSSFHSS

Variants of: B1
Assay: Tango assay
Details: with Myc-tagged COMMD8 C-terminally fused to TEV protease [not stated (mouse cDNA cloned for the MSCV2.2 vectors)]; HTL cells; firefly luciferase normalized to Renilla luciferase, fold increase over unstimulated cells; read off a plot

For chain 2 S353A S354A S355A, which response (fold increase) is on record?
The response (fold increase) was 0.87.
